Paper PMC5627308, “Biochemical Function, Molecular Structure and Evolution of an Atypical Thioredoxin Reductase from Desulfovibrio vulgaris” (Frontiers in Microbiology, 2017)

How the values were obtained:
DvTR3 = molecular target: T1, DvTR3 (Nitratidesulfovibrio vulgaris, UniProt Q72F38); assay: reduction of bound flavin, absorbance spectra, anaerobic; type: biochemical; conditions: 100 uM NAD(P)H, 50 mM Tris-HCl pH 7.5, 150 mM NaCl, 25 C
T1 construct: gene trxB-1; recombinant from E. coli, purified; FAD-containing
T1 sequence (Q72F38 entry or part of it): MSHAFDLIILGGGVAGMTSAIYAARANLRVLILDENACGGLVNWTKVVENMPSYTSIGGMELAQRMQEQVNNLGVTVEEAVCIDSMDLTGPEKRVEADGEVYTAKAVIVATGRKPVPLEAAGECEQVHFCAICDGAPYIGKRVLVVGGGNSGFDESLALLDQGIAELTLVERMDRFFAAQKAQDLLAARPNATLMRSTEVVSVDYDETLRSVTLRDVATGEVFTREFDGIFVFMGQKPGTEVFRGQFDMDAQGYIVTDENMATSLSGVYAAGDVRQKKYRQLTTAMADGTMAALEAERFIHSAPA

DvTR1 = molecular target: T2, DvTR1 (Nitratidesulfovibrio vulgaris, UniProt Q72B02); assay: as above; type: biochemical; conditions: 100 uM NAD(P)H, 50 mM Tris-HCl pH 7.5, 150 mM NaCl, 25 C
T2 construct: gene trxB-2; recombinant from E. coli, purified; FAD-containing
T2 sequence (Q72B02 entry or part of it): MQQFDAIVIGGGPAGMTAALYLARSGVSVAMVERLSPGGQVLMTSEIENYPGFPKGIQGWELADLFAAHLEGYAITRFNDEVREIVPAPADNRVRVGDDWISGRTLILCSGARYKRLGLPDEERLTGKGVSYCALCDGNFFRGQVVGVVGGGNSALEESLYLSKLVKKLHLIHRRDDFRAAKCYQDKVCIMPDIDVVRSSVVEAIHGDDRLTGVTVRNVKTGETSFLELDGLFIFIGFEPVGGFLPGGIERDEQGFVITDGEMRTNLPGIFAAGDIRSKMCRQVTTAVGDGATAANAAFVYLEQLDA

[1] = molecular target: DvTRi, isolated thioredoxin reductase from Desulfovibrio vulgaris Hildenborough (Desulfovibrio vulgaris Hildenborough); assay: crystal structure; oxidized DvTRi, 2.0 Å; crystals from 12% PEG 3350, 100 mM BisTris pH 6.0 (crystals 1) or 25% PEG 4000, 50 mM ammonium acetate, 100 mM sodium citrate pH 5.6 (crystals 2)
[2] = molecular target: DvTrx1C30S (Desulfovibrio vulgaris Hildenborough); assay: cross-linking; mixed-disulfide trapping with single-cysteine variants: DTT-reduced DvTRi variant reacted with equimolar DvTrx1 variant activated as TNB mixed disulfide, 50 mM Na/K phosphate pH 8.8, 2 h at 37°C; non-reducing SDS-PAGE, western blot with antiserum against EcTrxA
[3] = molecular target: DvTrx1C33S (Desulfovibrio vulgaris Hildenborough); assay: as above

## NC(=O)C1=CN([C@@H]2O[C@H](COP(=O)(O)OP(=O)(O)OC[C@H]3O[C@@H](n4cnc5c(N)ncnc54)[C@H](O)[C@@H]3O)[C@@H](O)[C@H]2O)C=CC1 [NADH]
DvTR3
  reduction of bound flavin, absorbance spectra, anaerobic: DvTR1 and DvTR3 were efficiently reduced by their specific reductants

## NC(=O)C1=CN([C@@H]2O[C@H](COP(=O)(O)OP(=O)(O)OC[C@H]3O[C@@H](n4cnc5c(N)ncnc54)[C@H](OP(=O)(O)O)[C@@H]3O)[C@@H](O)[C@H]2O)C=CC1 [NADPH]
DvTR1
  reduction of bound flavin, absorbance spectra, anaerobic: DvTR1 and DvTR3 were efficiently reduced by their specific reductants

## DvTRi, isolated thioredoxin reductase from Desulfovibrio vulgaris Hildenborough (enzyme)
[1]
  stoichiometry N: 2

## DvTrx1C30S (natural protein)
[2]
  stoichiometry N: 2

## DvTrx1C33S (natural protein)
[3]
  stoichiometry N: 2
